Assay results taken from the supplement of paper PMC9170038.

Tested on: MS2 coat protein
Assay: apparent KD of MS2 coat protein; designed switch direction (-1 OFF switch, 1 ON switch): 1; higher = weaker reporter binding
In short: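 An oligonucleotide input, 200 uM small-molecule ligand, or no input was present during titration of SNAP-549-labelled MS2 coat protein, which was doubled from 0.7 or 1.5 nM to 3 µM. Designed RNA switches had been transcribed on Illumina chips by stalled E. coli RNA polymerase. Apparent KD per design is the median over clusters of curves fitted to normalised cluster fluorescence.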

[1] = input ligand: microRNA oligo, concentration not stated
[2] = Eterna round: R95, input ligand: FMN 200 uM
[3] = Eterna round: R95, input ligand: microRNA oligo, concentration not stated
[4] = Eterna round: R95, input ligand: none

Row | Sequence | apparent KD of MS2 coat protein (input ligand: FMN 200 uM) | apparent KD of MS2 coat protein [1] | apparent KD of MS2 coat protein (input ligand: none) | apparent KD of MS2 coat protein [2] | apparent KD of MS2 coat protein [3] | apparent KD of MS2 coat protein [4]
1 | ACGUGGACGAAAGUCCACGAAUAAGACGAACAUGAGGAUCACCCAUGUGAGGCGAGCUUUUUGUUCGUCUUAUAAAA [Mat - Sensor - Mod - D116] (Eterna round: R96, puzzle: Sensor for hsa-mir-208a) | 73.1 nM | 32.1 nM | 22.6 nM | – | – | –
2 | AACAAUCUAUCUGAGGAUAUCAUGAAAUAAACAUGAGGAUCACCCAUGUGUAGGAAAACUGCAUAUGAGAAGGCAGAUAGAUUGA [salish99_ss2_r3_036] (Eterna round: R96, puzzle: Same State 2) | – | 465 nM | – | – | – | –
3 | AACUAUCUAUCUCAGGAUAUCAUGUCAAAGACAUGAGGAUCACCCAUGUACCAGGAAACUGGUUAUGAGAAGGGAGAUAGAUAGG [Mat - Same State 2 - Mod - D42] (puzzle: Same State 2) | – | – | – | 193 nM | 64.8 nM | 68.3 nM
4 | GGAGCCGGUACUGAGGAUAUUCAUAUUAAAACAUGAGGAUCACCCAUGUAGGCCAGAAGGCCUUGGGAGAAGGCGGAUCGGCUCC [Biseusra - 2] (puzzle: Same State 2) | – | – | – | 22 nM | 180 nM | 417 nM
5 | AGGAUGAGAACAGGAUAUUCGACAUGAGGAUCACCCAUGUGGCAAGUAGGUGACGAUGAAUGACGGAAGAAGGGUUACGAGGAG [Same State NG2] (Eterna round: R96, puzzle: Same State NG 2) | 375 nM | 197 nM | 199 nM | – | – | –
6 | GCAGGACGAUAAUAUAACUUCACAUGAGGAUCACCCAUGUCUCAGGAUAUGGAUCCUAAUUGGAUCCAGAAGGGAGCGUCCUGC [Fiskers NG3ss - 34] (Eterna round: R96, puzzle: Same State NG 3) | 14.5 nM | 25.9 nM | 35.1 nM | – | – | –
7 | CGUCCGGCCUGUGCUGGCCGGUUGCUUGUACAUGAGGAUCACCCAUGUUCUUGUGCUGGCUUUUUGCUCGUCUUGUG [salish99_mir208a_019] (puzzle: Sensor for hsa-mir-208a) | – | – | – | 31.5 nM | 19.2 nM | 37.8 nM
8 | ACAUGAGACCAAGGAUAUUUUGUACCUACAUGUGACAUGAGGAUCACCCAUGUGGUAAGUAUGAGAAAGAAGGUGGAGAUAUGU [Equivalence 22 - Jieux - Same State NG 2] (Eterna round: R96, puzzle: Same State NG 2) | 22.8 nM | 22.5 nM | 37 nM | – | – | –
9 | GAGUGGCAGUUAGGAUAUACAGUGAUAAUGAUAGUAGAAGGAACUGACAUGAGGAUCACCCAUGUAGGACUAAUCCAGAGAGAG [Parity 32 - Jieux - Same State NG 1] (Eterna round: R96, puzzle: Same State NG 1) | 92.3 nM | 21.2 nM | 31.5 nM | – | – | –
10 | AGUCCAGCCUGAGCUGGACAAUAGCAUGUACAUGAGGAUCACCCAUGUCAUGUACAAGCUUUUUGCUCGUCUUAAAA [JL zipper 48] (Eterna round: R96, puzzle: Sensor for hsa-mir-208a) | 163 nM | 12.4 nM | 159 nM | – | – | –
11 | UAUCGUUUGAUAGGAUAUCGCUAUACAUGAGGAUCACCCAUGUUUACCACGCUGGUUUUUCAUACCGAGAAGGAUUCUGAUGAC [salish99_SSNG02_r04_006] (Eterna round: R96, puzzle: Same State NG 2) | 38.3 nM | 31.5 nM | 27.7 nM | – | – | –
12 | AGCACUUCAGAAGGAUAUGAGAUGCUAAGCAUCUUAGAAGGUCUGCCGUAAAGAAACGUCCACAUGAGGAUCACCCAUGUUGCA [Eternabot solution 28] (Eterna round: R96, puzzle: Same State NG 1) | 20.9 nM | 21.9 nM | 26 nM | – | – | –
